According to the supplement of paper PMC9170038:

Tested on: K4 kissing-loop RNA reporter
Test: apparent KD of K4 kissing-loop reporter; higher = weaker reporter binding
Conditions: Eterna round: R107
Experimental: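 RNA-MaP round R107: designed RNA switches with theophylline, tryptophan, arginine or FMN aptamers are transcribed on-chip within common flanks. They are titrated with a labelled K4 kissing-loop RNA reporter in RNA-MaP buffer (100 mM Tris pH 7.5, 80 mM KCl, 4 mM MgCl2), without ligand or with the indicated ligand. Median apparent KD per design.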

[1] = input ligand: theophylline 20 uM
[2] = input ligand: tryptophan 2.4 mM
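Note: bound reporter read as fluorescence of individual clusters on recovered sequencing chips by microscopy, with normalized cluster intensities fitted with a binding model.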

Row | Sequence | apparent KD of K4 kissing-loop reporter (input ligand: FMN 200 uM) [nM] | apparent KD of K4 kissing-loop reporter (input ligand: arginine 13.2 mM) [nM] | apparent KD of K4 kissing-loop reporter (input ligand: none) [nM] | apparent KD of K4 kissing-loop reporter [1] [nM] | apparent KD of K4 kissing-loop reporter [2] [nM]
1 | ACGUCCGGAUUGAUCGUGGGCAUGGUCGAUACCAGUAGUUUAAUCUACCCUUGGCAGCGACAUGAGUGAUGUUCAUGUGCGAUGA [KL-XTheo-A7 #analogue] | 185 | 164 | 173 | 350 | 185
2 | UAAUAUAACCGAAGGAGCGCGUGGGCGCAGUGAUGUUGCGCCCGACAUCACUUCAACUAAACGCAGGUAGGUCGCGGUAAUAAUA [Arginine B (Excl) V1] | 134 | 83.1 | 104 | 84.2 | 98.4
3 | AUAAACUUGCAGUGAUGUUGCAAGUGAGACUAGGAUAUCAGGAAGCUGAGAAGGAGUCAUCUCCUUCAGACAUCACUAUGAAGGA [whbob_SS_FMNA__2th179] | 334 | 191 | 251 | 205 | 232
4 | CCGAUGGGUACAGGAUAUGCCAGUGAUGUUGGUUUAGAUGGACCCAUAAGGAGACACCAGACGGAGGCAGAAGGGUAGCAAGGGA [Isonanti] | 127 | 110 | 101 | 118 | 120
5 | GUUACGCAUGGAAGGAGCGCACUCCGAUUGAUCGACACAGUGAUGUUGUGGUUCGUUCGAAUGCAGGUAGGUCGCCAUGUGUAAC [Ex Arginine B K4 17] | 259 | 250 | 253 | 303 | 233
6 | CAUGGAGUGAUGCUCCAUGAUCGGGCUUGGCAGGAUAUGGGAUCUUCCAGAAGGGCCGAUCCCAGCGAGUGAUGUUCGCUGGUCU [Exclusion FMN A GF 27] | 119 | 107 | 113 | 116 | 108
7 | ACCUACCAUUAGUGAUGUUAAUGGACGGAAGGAGCGCAGAUAUCUGCAGGUAGGUCGCCGAAGGCUAGACAUUGUCUAGCCAUUU [AK1.3 SS Arginine A] | 192 | 161 | 217 | 155 | 180
8 | AAGGCAAUUCGAGGAUAUCACAUACACUCCUUGAAUCAAGGAGUGAUGUUCCUUGAAGUGUAUGCAUGAGAAGGCGAAUUGCCUU [#05 K4 FMN B Same State] | 113 | 86.5 | 95.4 | 99.3 | 95.3
9 | GGUUUAUAGGAGGAUACCAGUACGGAUAAAGUACGUUAAUAGUAGAGUGAUGUUCUAAAGUACCCUUGGCAGCUUAGAGUAAGUU [ExTheophylB.K] | 85.8 | 147 | 105 | 117 | 63.4
10 | CAUAUCAGAUAAGGAUAUAUGGCUCCUCGAGUCCAGUGAUGUUGGGCAACGUUUCAGUGGUGGAUUAUAGAAGGUAUUCACAGAC [theeternabot_sameState_KL_FMN_B_9] | 297 | 250 | 276 | 272 | 258
11 | GUUUCUUGGAAACAAGGACCGCUAACCGAAGGAGCGAGUGAAAACUCAGGUAGGUCGCGGUAGCGGAGUGAUGUUCCGCGUUUAC [Excluson Arginine A GF 15] | 91.3 | 129 | 123 | 150 | 99.8
12 | GAUUCUGUUCGAAAGAACGGAAUCACGGAAGGAGCGAGAGAAAUCUCAGGUAGGUCGCCGAAUUUUUGAUAGUGAUGUUAUCAUU [Arginine A K4 2] | 422 | 353 | 388 | 408 | 426
13 | AGGCACGAGCAAGGAUAUCGAGUGGAGUGAUGUUCUGCCGACCCAGGACCGAAAGGUCCUGGGUCGCGAGAAGGUGCUCGUGCCU [#2 Same State - FMN A Attempt #8 (HarryS)] | 215 | 785 | 949 | 568 | 711
14 | UGCGCUGUGUACUGAAAUGUUAUGCGGGAUACCAGAGUCUUUUUAUUCCCUUGGCAGCUUGAGUGAUGUUUGAUGCCGUUCUUGU [po,,mmullin] | 490 | 256 | 548 | 577 | 418
15 | GAGGUACAGGCGGCCGCCACUAGUGAUGUUAGUGAUAGAAGAUAUAGUAAAUAUCGGCAUGUAGAUAGGACCGGGCCUGGUGGAG [vvgtcmullin] | 291 | 234 | 288 | 327 | 287
16 | UCUUGUUCAUAGUGAUGUUAUGAGCUUAGAAAGGAUAUGAUCAACAUCAGAAGGUUCAAGGAUUCCCGACUCCAACUUCGGUUUC [theeternabot_sameState_KL_FMN_A_43] | 280 | 270 | 306 | 339 | 332
17 | ACGUCCCGUUUACUCGUGGGUUAGGUCGAUACCAGUAUUCAAACUUACCCUUGGCAGCGACAUGAGUGAUGUUCAUGUGCGAAGA [KL-XTheo-A5 #analogue] | 114 | 96.2 | 108 | 108 | 104
18 | GCAGUGAUGUUGCGGAUGUACAGUGGCGUGCGAGGACCGGUACGGCCGCCACUCGUACAGCACAAGCUAAUACAUCGAUAGGUGA [whbob_SS_Tryp_A_m2] | 566 | 287 | 357 | 380 | 430
19 | CCGUAGCGAUCGGCCGCCACUCAAGAUCGCCAACUAUCACACGGUUCUCCCGAGUGAUGUUCUAGGAGGACCGGGAUUGUUGCUC [theeternabot_exclusion_KL_Trp_B_13] | 421 | 322 | 378 | 374 | 388
20 | AAGGCCACGAGAAGGAGCGUGUUGUGGAGUGAUGUUCCAUUGUAGACCUAAGGUCUACAAGCACAGGUAGGUCGCUCGUGGUCAA [Omei KL Arginine B SS A v5] | 131 | 120 | 132 | 112 | 119
21 | GUCUCAAAAGAGGCAAGCACUCACGAGGACAAGGAUAUCAUAUCAAUGAGAAGGUGUCCUCGUCCUUAGUGAUGUUAAGGAGUGC [Omei KL FMN A SS E v3] | 297 | 298 | 357 | 196 | 330
